Experimental data: paper PMC7565527, “Cryo-EM Structure of Heterologous Protein Complex Loaded Thermotoga Maritima Encapsulin Capsid” (Biomolecules, 2020)

Molecular target: the molecule itself
Experiment: cryo-EM structure; Encap/IDM complex coexpressed in insect cells, purified by Ni-NTA and Superdex 200; icosahedral reconstruction of the encapsulin shell at 2.87 Å, C1 reconstruction at 4.29 Å

B1: Thermotoga maritima encapsulin capsid protein, C-terminus His-tagged (natural protein)
chain: MEFLKRSFAPLTEKQWQEIDNRAREIFKTQLYGRKFVDVEGPYGWEYAAHPLGEVEVLSDENEVVKWGLRKSLPLIELRATFTLDLWELDNLERGKPNVDLSSLEETVRKVAEFEDEVIFRGCEKSGVKGLLSFEERKIECGSTPKDLLEAIVRALSIFSKDGIEGPYTLVINTDRWINFLKEEAGHYPLEKRVEECLRGGKIITTPRIEDALVVSERGGDFKLILGQDLSIGYEDREKDAVRLFITETFTFQVVNPEALILLKF
notes: T. maritima encapsulin capsid protein; gene amplified from pET14-GFP30-Encap (Addgene #86406); model built from PDB 3DKT; Assembles into an icosahedral shell with 12 fivefold pores; its symmetry expansion ('the other expanded 59 sets') implies 60; also called encapsulin shell; source: insect cells (baculovirus, pFastBac1), coexpressed with cargo, purified (Ni-NTA, Superdex 200); not shown: His …
binding result: binds
